Measured values from patent US20120148607A1 (ARGEN X N V, published 2012).
Like-named read-outs stand apart in the source and are kept apart here. Values belong to the binder of their own block, whether it stands above or below them.

What was measured:
[1] = molecular target: T1, Decoy c-Met (extracellular domain of human c-Met) (human, UniProt P08581 25-932); assay: ELISA: c-Met ectodomain coated at 1 µg/ml on maxisorb plate; mAb in three-fold dilutions from 1 µg/ml, 1 h RT; HRP-conjugated Protein A, TMB, OD 450
T1 construct: extracellular domain; also called Decoy Met; monomeric Decoy Met

[2] = molecular target: T2, human/llama-IPT chimeric c-Met ECD (human; Llama glama, UniProt P08581 25-567); assay: ELISA: 200 ng of the c-Met ECD protein coated on maxisorb plates; mAb dilutions 1 h RT; HRP-conjugated goat anti-human antibody, TMB, OD 620 nm
T2 construct: range 25-567;range 568-932; Human c-Met in which IPT1-4 is exchanged for the llama IPT1-4; also called human/llama IPT1-4; construct with the human SEMA-PSI; not shown: His tag

[3] = molecular target: T3, human c-Met ECD (aa 25-932) with His tag (human, UniProt P08581 25-932); assay: as above
T3 construct: range 25-932; Soluble protein from HEK293 cells; also called human c-Met (WT); not shown: His tag

[4] = molecular target: T1, Decoy c-Met (extracellular domain of …); assay: binding ELISA, human c-Met (Decoy)
[5] = molecular target: T4, HMet (human c-Met of Table 16) (human, UniProt P08581 25-932, limits assumed); assay: ELISA, 36C4 (2 µg/ml) immobilised, c-Met construct added, streptavidin-HRP
T4 construct: Label not explained in the text; not shown: Flag and strep tag
From the text: (§1) An ELISA was run to investigate the binding of the mAbs to the different chimeras.

[6] = molecular target: T5, LP6 (aa497-909) llama-human c-Met chimera (human; Llama glama, UniProt P08581 25-520); assay: ELISA, 36C4 (2 µg/ml) immobilised, chimera added, streptavidin-HRP
T5 construct: range 1-496 (mature numbering, E=1; derived);range 497-909 (mature numbering, E=1); not shown: Flag and strep tag
From the text: as §1

[7] = molecular target: T6, LI11 (aa634-909) llama-human c-Met chimera (human; Llama glama, UniProt P08581 25-657); assay: as above
T6 construct: range 1-633 (mature numbering, E=1; derived);range 634-909 (mature numbering, E=1); also called Ll11; not shown: Flag and strep tag
From the text: as §1

[8] = molecular target: T7, LI10 (aa608-909) llama-human c-Met chimera (human; Llama glama, UniProt P08581 25-631); assay: as above
T7 construct: range 1-607 (mature numbering, E=1; derived);range 608-909 (mature numbering, E=1); also called Ll10; not shown: Flag and strep tag
From the text: as §1

[9] = molecular target: T8, LI9 (aa572-909) llama-human c-Met chimera (human; Llama glama, UniProt P08581 25-595); assay: as above
T8 construct: range 1-571 (mature numbering, E=1; derived);range 572-909 (mature numbering, E=1); also called Ll9; not shown: Flag and strep tag
From the text: as §1

[10] = molecular target: T9, LP7* (aa523-909) llama-human c-Met chimera (human; Llama glama, UniProt P08581 25-546); assay: as above
T9 construct: range 1-522 (mature numbering, E=1; derived);range 523-909 (mature numbering, E=1); not explained further; not shown: Flag and strep tag
From the text: as §1

[11] = molecular target: T10, LI8 (aa540-909) llama-human c-Met chimera (human; Llama glama, UniProt P08581 25-563); assay: as above
T10 construct: range 1-539 (mature numbering, E=1; derived);range 540-909 (mature numbering, E=1); also called Ll8; not shown: Flag and strep tag
From the text: as §1

[12] = molecular target: T11, LS1 (aa1-98) llama-human c-Met chimera (Llama glama; human, UniProt P08581 123-933); assay: as above
T11 construct: range 1-98 (mature numbering, E=1);range 99-909 (mature numbering, E=1; derived); not shown: Flag and strep tag
From the text: as §1

[13] = molecular target: T12, Rhesus (Maccaca mulatta, US20090191580-5) c-Met ECD (Rhesus (Maccaca mulatta)); assay: binding ELISA, Rhesus c-Met ECD immobilised (1 µg/ml)
T12 construct: extracellular domain; also called Rhesus c-Met ECD; Rhesus ECD
Procedure: Cross reactivity to Rhesus (Maccaca mulatta, US20090191580_{—}5) c-Met ECD and mouse c-Met (R&D systems cat no: 527-ME) was performed in a binding ELISA. Rhesus ECD was immobilized in PBS (1 μg/ml) on a 96-well maxisorb plate and incubated at 4° C. over night. After blocking with 1% casein in PBS, the antibodies in dilutions starting with 10 μg/ml were added and allowed to bind for 1 h at room temperature. The plate was washed and a goat anti-human Fcγ antibody (Jackson) was added and incubated for 1 h at room temperature. After washing, TMB was added and the plate read at 620 nm

[14] = molecular target: T13, recombinant dimeric c-Met (R&D systems, 358-MT/CF) (human, UniProt P08581 25-932); assay: competition ELISA: recombinant dimeric c-Met (100 ng/ml) captured by coated mouse anti-His antibody; antibody dilutions 30 min, then 25 ng/ml N-terminally biotinylated HGF (the competitor); strep-HRP, TMB, 620 nm; percent competition against the controls
T13 construct: Bought product; also called Fc-Met; recombinant c-Met
Procedure: Competition with N-terminally biotinylated HGF for binding to immobilized c-Met was performed using an ELISA-based competition assay. Five μg/ml mouse anti-His antibodies (Serotech) was immobilized on a maxisorb plate and, after blocking with 1% casein in PBS for 2 h, 100 ng/ml recombinant dimeric c-Met was added and incubated for 1 h at room temperature. After washing, dilutions of the antibodies were added and allowed to bind to the captured c-Met for 30 minutes, before 25 ng/ml N-terminally biotinylated HGF (R&D systems, 294-HGN/CF) was added. Biotinylated HGF was incubated at room temperature for 1 h before washing. Horseradish-conjugated streptavidin (strep-HRP) was added and incubated for an additional hour. TMB was added and the plate read at 620 nm. An isotype control (hIgG1λ) was included as a control as well as murine 5D5 antibody. Competition was expressed as percentage competition as compared to the controls (strep-HRP only or hIgG1λ) and plotted against the concentration of antibodies. An IC₅₀ was calculated using GraphPad Prism (Table 10). Antibodies 13E6 and 20A11 only displaced HGF partially (about 50%), which may be related to the epitope these two mAbs recognize on the c-Met.

[15] = molecular target: T3, human c-Met ECD (aa 25-932) with His tag; assay: ELISA: 200 ng of the c-Met ECD protein coated on maxisorb plates; mAb dilutions 1 h RT; HRP-conjugated goat anti-human antibody, TMB, OD 620 nm; remark: listed apart in the source
[16] = molecular target: T14, c-Met SEMA-PSI-IPT1-2 ectodomain (human, UniProt P08581 25-741, limits assumed); assay: ELISA on immobilised c-Met ectodomains
T14 construct: domain: SEMA-PSI-IPT1-2; also called IPT1-2 (as recognised domain)

[17] = molecular target: T15, c-Met IPT3-4 ectodomain (human, UniProt P08581 742-932, limits assumed); assay: ELISA on immobilised c-Met ectodomains
T15 construct: domain: IPT3-4

[18] = molecular target: T16, c-Met SEMA-PSI ectodomain (human, UniProt P08581 25-562, limits assumed); assay: ELISA on immobilised c-Met ectodomains
T16 construct: domain: SEMA-PSI

[19] = molecular target: T17, c-Met SEMA ectodomain (human, UniProt P08581 27-515); assay: ELISA on immobilised c-Met ectodomains
T17 construct: domain: SEMA; also called SEMA domain

[20] = molecular target: T1, Decoy c-Met (extracellular domain of …); assay: SPR: mAb (0.5 µg/ml) kept 1 h at the given temperature, run over a CM-5 chip coupled with 15,000-17,000 RU Decoy c-Met; slope between 100 and 130 s at 30 µl/min in percent of the sample kept at 4 °C
[21] = molecular target: T16, c-Met SEMA-PSI ectodomain; assay: ELISA: c-Met ectodomain coated at 1 µg/ml on maxisorb plate; mAb in three-fold dilutions from 1 µg/ml, 1 h RT; HRP-conjugated Protein A, TMB, OD 450
[22] = molecular target: T1, Decoy c-Met (extracellular domain of …); assay: as above; remark: listed apart in the source
[23] = molecular target: T17, c-Met SEMA ectodomain; assay: as above

T1 sequence (P08581 25-932): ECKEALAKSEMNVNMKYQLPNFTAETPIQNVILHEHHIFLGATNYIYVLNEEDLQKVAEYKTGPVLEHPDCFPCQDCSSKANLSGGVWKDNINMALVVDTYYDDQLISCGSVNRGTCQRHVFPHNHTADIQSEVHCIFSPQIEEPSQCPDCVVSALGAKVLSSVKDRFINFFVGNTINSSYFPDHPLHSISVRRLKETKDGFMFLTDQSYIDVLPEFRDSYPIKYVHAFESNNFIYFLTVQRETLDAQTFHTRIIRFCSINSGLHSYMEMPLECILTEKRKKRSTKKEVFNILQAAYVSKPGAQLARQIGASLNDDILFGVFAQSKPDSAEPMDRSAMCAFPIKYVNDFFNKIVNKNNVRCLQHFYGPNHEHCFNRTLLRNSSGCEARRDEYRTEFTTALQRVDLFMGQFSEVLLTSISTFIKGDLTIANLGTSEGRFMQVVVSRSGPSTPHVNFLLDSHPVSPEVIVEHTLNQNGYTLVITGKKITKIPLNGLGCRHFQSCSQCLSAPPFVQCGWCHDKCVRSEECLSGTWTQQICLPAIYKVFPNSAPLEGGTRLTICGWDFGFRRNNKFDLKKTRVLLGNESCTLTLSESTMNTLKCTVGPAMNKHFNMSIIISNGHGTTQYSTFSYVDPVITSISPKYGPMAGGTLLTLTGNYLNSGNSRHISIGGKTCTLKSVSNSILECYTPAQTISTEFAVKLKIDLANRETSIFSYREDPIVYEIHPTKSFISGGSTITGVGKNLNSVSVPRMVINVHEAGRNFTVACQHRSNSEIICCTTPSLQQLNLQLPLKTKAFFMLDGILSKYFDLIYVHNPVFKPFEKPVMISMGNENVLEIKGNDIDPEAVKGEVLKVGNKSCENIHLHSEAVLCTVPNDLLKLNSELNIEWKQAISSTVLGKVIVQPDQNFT
T17 sequence (P08581 27-515): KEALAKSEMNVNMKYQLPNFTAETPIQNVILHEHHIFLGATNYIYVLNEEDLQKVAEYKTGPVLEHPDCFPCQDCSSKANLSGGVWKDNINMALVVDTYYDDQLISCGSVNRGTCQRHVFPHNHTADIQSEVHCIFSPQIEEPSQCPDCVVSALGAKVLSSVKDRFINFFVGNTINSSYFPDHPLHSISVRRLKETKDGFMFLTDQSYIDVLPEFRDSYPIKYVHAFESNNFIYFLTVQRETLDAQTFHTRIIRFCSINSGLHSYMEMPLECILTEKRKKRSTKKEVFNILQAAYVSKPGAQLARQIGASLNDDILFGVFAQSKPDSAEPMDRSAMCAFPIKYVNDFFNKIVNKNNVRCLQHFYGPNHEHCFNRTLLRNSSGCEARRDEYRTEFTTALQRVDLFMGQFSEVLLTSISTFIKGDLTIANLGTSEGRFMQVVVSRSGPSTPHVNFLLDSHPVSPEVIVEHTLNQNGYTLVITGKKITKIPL
T16 sequence (P08581 25-562 limits assumed): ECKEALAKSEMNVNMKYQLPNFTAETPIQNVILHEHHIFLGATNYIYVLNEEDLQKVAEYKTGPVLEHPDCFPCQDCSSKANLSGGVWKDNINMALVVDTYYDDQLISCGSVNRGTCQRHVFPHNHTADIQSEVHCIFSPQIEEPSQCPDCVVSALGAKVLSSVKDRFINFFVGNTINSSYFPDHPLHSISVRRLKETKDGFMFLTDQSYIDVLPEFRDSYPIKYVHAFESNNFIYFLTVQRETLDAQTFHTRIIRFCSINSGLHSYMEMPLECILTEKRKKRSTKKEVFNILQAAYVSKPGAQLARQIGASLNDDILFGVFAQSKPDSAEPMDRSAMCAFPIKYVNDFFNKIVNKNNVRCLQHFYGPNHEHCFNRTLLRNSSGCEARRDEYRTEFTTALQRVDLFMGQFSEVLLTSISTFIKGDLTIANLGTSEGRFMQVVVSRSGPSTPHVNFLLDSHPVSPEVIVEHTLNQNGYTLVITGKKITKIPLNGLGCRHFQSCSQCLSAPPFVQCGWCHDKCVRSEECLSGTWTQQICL
T3 sequence (P08581 25-932 limits assumed): as the sequence (P08581 25-932) above
T13 sequence (P08581 25-932 limits assumed): as the sequence (P08581 25-932) above
T15 sequence (P08581 742-932 limits assumed): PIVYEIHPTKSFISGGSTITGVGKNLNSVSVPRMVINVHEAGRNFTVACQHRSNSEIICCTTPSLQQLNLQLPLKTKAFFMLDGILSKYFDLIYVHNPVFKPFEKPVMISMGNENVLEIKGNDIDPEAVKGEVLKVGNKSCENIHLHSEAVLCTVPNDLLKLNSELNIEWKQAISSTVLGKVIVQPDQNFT
T14 sequence (P08581 25-741 limits assumed): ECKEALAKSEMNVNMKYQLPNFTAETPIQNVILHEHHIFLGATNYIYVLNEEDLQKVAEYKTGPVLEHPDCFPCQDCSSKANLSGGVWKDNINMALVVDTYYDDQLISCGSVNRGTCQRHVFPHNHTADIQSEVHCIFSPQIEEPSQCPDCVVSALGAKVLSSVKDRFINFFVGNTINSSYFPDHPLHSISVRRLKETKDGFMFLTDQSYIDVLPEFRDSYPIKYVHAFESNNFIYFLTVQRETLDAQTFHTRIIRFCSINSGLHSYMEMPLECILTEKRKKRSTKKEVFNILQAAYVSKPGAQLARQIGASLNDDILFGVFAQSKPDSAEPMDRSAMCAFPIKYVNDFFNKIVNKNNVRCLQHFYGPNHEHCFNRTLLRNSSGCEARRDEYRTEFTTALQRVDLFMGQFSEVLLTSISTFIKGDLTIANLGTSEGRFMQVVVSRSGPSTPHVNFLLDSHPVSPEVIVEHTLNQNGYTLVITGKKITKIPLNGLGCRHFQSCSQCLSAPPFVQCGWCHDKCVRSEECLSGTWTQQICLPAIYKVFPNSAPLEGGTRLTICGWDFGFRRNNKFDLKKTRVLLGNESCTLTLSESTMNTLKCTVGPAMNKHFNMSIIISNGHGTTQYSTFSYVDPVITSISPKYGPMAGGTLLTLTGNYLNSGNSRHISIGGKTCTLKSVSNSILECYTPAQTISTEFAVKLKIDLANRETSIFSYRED
T5 sequence (P08581 25-520, change not shown): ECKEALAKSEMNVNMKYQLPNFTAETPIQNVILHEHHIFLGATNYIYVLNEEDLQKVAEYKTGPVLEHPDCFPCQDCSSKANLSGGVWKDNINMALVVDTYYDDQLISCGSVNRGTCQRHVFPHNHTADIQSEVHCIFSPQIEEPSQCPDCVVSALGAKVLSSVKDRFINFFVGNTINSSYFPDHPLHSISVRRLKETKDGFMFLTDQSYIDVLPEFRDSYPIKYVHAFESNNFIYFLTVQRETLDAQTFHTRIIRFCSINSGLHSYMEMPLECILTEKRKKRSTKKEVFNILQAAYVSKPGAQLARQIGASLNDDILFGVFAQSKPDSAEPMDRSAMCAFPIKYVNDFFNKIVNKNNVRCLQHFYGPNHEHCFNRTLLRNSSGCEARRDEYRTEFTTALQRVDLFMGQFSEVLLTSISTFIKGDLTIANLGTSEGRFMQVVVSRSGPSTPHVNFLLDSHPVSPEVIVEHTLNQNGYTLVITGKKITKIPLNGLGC
T2 sequence (P08581 25-567, change not shown): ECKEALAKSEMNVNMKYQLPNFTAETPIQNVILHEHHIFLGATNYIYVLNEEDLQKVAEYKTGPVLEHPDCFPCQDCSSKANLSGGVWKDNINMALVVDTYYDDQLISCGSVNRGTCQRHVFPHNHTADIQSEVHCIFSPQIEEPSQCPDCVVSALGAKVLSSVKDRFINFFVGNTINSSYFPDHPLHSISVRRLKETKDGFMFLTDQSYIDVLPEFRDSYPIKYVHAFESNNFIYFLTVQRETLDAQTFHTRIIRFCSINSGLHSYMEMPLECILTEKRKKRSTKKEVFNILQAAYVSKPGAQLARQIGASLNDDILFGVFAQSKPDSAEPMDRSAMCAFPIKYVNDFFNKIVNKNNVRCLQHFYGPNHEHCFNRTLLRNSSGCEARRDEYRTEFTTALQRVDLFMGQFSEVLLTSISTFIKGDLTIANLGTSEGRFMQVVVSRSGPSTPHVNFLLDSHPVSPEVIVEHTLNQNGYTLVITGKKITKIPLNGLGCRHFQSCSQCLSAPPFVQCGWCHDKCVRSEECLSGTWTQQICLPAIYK
T6 sequence (P08581 25-657, change not shown): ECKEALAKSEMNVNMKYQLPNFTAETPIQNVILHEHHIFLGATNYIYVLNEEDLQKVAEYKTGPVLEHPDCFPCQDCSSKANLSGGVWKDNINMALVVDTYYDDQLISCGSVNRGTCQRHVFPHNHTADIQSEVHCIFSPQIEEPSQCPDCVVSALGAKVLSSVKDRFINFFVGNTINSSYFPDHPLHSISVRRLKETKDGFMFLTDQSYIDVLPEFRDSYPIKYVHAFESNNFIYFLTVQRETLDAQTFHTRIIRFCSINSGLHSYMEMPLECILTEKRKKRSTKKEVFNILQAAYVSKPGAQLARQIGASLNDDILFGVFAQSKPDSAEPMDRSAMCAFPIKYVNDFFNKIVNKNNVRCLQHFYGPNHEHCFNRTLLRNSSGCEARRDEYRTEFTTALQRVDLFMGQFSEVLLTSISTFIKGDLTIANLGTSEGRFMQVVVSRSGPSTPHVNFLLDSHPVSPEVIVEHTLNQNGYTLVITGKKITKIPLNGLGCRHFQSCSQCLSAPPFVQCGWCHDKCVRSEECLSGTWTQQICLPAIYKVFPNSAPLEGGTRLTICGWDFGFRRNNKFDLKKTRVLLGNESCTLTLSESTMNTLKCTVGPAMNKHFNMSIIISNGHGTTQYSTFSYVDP
T4 sequence (P08581 25-932 limits assumed): as the sequence (P08581 25-932) above

B1: 36C4 mAb (antibody, V domains shown)
VH: QVQLVESGPGLVKPSQTLSLTCAVSGGSITTNYYYWSWIRQSPGKGLEWMGVIAYDGSTDYSPSLKSRTSISRDTSKNQFSLQLSSVTPEDTAVYYCARDVRVIATGWATANALDAWGQGTLVTVSS
VL: QSVLTQPPSVSGSPGKTVTISCAGTSSDVGYGNYVSWYQQLPGTAPKLLIFAVSYRASGIPDRFSGSKSGNTAFLTISGLQSEDEADYYCASYRSSNNAAVFGGGTHLTVL
notes: also called SIMPLE antibody 36C4
- EC50 (read off the curve) [1]: ~0.02 µg/mL
- EC50 (read off the curve) [2]: ~0.6 nM
- EC50 (read off the curve) [3]: ~0.6 nM
- EC50 [4]: 0.13 nM
- EC50 [5]: 0.06 µg/mL
- EC50 [6]: 0.05 µg/mL
- EC50 [7]: 0.045 µg/mL
- EC50 [8]: 0.047 µg/mL
- EC50 [9]: 0.047 µg/mL
- EC50 [10]: 0.055 µg/mL
- EC50 [11]: 0.047 µg/mL
- EC50 [12]: 0.068 µg/mL
- EC50 [13]: 0.14 nM
- IC50 (read off the curve) [14]: ~0.2 nM

B3: 56F3 (antibody, V domains shown)
VH: EVQLVQPGAEVKKPGASVKVSCKASGYIFTMNSIDWVRQAPGQGLEWMGRIDPEEGGTKYAQKFQGRVTMTADTSTSTAYMELSSLRSDDTAVYYCARVDDYYLGYDYWGQGTQVTVSS
VL: DIVMTQSPDSLAASLGERVTINCKSSQSVLFSSNQKNYLAWYQQRPGQSPKLLIYWASIRESGVPDRFSGSGSGTDFTLTISSLQAEDVAVYYCQQGYSFPYSFGSGTRLEIK
notes: also called germlined variant of 48A2
- binding result [20]: binds

Continued by falling EC50 [4], values first:

- EC50 (read off the curve) [15]: ~1 nM
- binding result [16]: no binding (tested: 1 µg/ml)
- binding result [17]: no binding (tested: 1 µg/ml)
- binding result [18]: no binding (tested: 1 µg/ml)
- binding result [19]: no binding (tested: 1 µg/ml)
- EC50 [4]: 0.19 nM
- EC50 [13]: 0.19 nM
B2: 13E6 mAb (antibody, V domains shown)
VH: QVQLQESGGDLVQPGGSLRLSCAASGFTFDDYVMNWVRQAPGKGLEWISAINWNGGSTYYAESMKGRFTISRDNAKNTLYLQMYSLQSDDTAVYYCVKDTVVSGNGYWGQGTQVTVSS
VL: QSVLTQPPSVSGTLGKTVTISCAGTSSDIGDYNYVSWYQQLPGTAPKLLIYDVNKRASGIPDRFSGSKSGNTASLSISGLQSEDEADYYCASYRSRNDYAFGGGTKLTVL

- binding result [21]: no binding (tested: 1000 ng/ml)
- EC50 (read off the curve) [22]: ~0.03 µg/mL
- binding result [23]: no binding (tested: 1000 ng/ml)
- EC50 [4]: 0.14 nM
- EC50 [13]: 0.13 nM
- IC50 (read off the curve) [14]: ~0.08 nM
B4: 40B8 mAb (antibody, V domains shown)
VH: EVQLVQPGAELRNPGASVKVSCKASGYTFTNYVIDWVRQAPGQGLEWMGRIDPENGGTRYAQKFQGRVTFTADTSTSTAYVELSNLRSEDTAVYYCARLEDYELAYDYWGQGTQVTVSS
VL: DIVMTQTPSSVTASAGEKVTINCKSSQSVLLSSNQKNYLAWYQQRLGQSPRLLIYWASTRESGVPDRFSGSGSTTDFTLTISSFQPEDAAVYYCQQGVSFPLTFGQGTKVELK
